Drawing on patent US20120288536, “Stabilized Stat3 Decoy Oligonucleotides And Uses Therefor” (Carnegie Melton, published 2012), this text covers binding result and Kd for 5 molecules.

The target of series [1] is T1, STAT3 (UniProt P40763 P40763:1-770). Kind of series: EMSA. The settings on record: chain copies: 2 inferred.
In series [2] the target is T2, pSTAT3 (tyrosine-phosphorylated STAT3) (UniProt P40763 P40763:1-770). The series is described as follows: SPR; Langmuir 1:1, 4 C, 20 mM HEPES pH 7.0, 200 mM NaCl, 10 mM MgCl2. The settings on record: tags: recombinant, immobilized on CM5 chip for SPR, chain copies: 2 inferred, hairpin, GAAA loop linking the strands. Here is the method: (§1) To more quantitatively assess the affinity of the decoy for pSTAT3 protein, the binding affinity by surface plasmon resonance (SPR) was determined. Solutions of STAT3 decoy were prepared at multiple concentrations and passed over recombinant tyrosine phosphorylated STAT3 immobilized in a sensor chip.
(§2) The amount of parent STAT3 decoy and modified STAT3 decoys bound to recombinant pSTAT3 increased directly with increasing concentrations of STAT3 decoy in test solutions. Data analysis by fitting the sensorgrams to a Langmuir 1:1 model of binding yielded kinetic and affinity values (Table 4).
(§3) To determine the specific binding affinities of the parent and the modified decoys (DN4 and DS18) to the pSTAT3 protein, surface plasmon resonance (SPR) analyses were performed using a BIAcore 3000 instrument (GE Healthcare, Piscataway, N.J.). All buffer and sample solutions were filtered and degassed prior to each run, with more optimal pH and instrument parameters determined empirically. The pSTAT3 protein at 10 μg/ml in 10 mM sodium acetate buffer (pH 4.0), was immobilized on freshly activated chip surface. […] Binding of STAT3 decoy, DN4 and DS18 to pSTAT3 protein were determined at several concentrations such as […] 0.625 μM, 1.25 μM, 2.5 μM 5.0 μM and 10.0 μM of analyte solutions, at a flow rate of 30 μL/min in a running buffer (20 mM HEPES, pH 7.0, 200 mM NaCl, 10 mM MgCl₂). […]

For series [3], the target named is T2, pSTAT3 (tyrosine-phosphorylated STAT3). Kind of series: SPR; Langmuir 1:1, 4 C, 20 mM HEPES pH 7.0, 200 mM NaCl, 10 mM MgCl2; replicate 1.15E-7 (Table 5A), 3.20E-7 (Table 5B); Table 3 1.29E-7 to 9.91E-7. The settings on record: tags: recombinant, immobilized on CM5 chip for SPR, chain copies: 2 inferred. Here is the method:
as §1, §2, §3

Series [4] concerns the target T1, STAT3. Kind of series: EMSA; longer sequence effective in blocking STAT3 activation. The settings on record: chain copies: 2 inferred.

T1 sequence (P40763 whole entry, one chain of several): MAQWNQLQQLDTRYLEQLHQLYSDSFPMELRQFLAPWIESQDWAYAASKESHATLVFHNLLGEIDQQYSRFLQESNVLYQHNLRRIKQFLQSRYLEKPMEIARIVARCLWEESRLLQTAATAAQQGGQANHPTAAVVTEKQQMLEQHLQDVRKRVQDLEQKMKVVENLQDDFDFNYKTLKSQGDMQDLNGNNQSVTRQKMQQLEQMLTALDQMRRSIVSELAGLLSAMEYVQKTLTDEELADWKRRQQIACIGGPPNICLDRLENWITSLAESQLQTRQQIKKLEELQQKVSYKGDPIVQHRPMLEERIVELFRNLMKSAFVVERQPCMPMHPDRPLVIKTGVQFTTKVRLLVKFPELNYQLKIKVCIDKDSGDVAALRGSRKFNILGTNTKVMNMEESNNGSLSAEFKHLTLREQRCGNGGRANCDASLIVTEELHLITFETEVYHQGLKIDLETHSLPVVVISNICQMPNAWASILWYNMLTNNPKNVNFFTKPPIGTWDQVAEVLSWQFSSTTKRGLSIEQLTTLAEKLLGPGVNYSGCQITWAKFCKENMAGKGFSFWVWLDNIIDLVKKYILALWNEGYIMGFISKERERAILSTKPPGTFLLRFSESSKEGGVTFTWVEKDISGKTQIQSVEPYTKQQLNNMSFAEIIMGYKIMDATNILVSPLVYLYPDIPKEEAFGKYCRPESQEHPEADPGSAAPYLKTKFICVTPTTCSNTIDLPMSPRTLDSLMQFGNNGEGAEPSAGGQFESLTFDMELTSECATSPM
T2 sequence (P40763 whole entry, one chain of several): as above

B1: Mutant 3 (mutant control decoy) (dsDNA)
DNA 1: CATTTCCCTTAAATC
DNA 2: GATTTAAGGGAAATG
On to B1, for which, in the series with STAT3 [1], the binding result is on record as “no binding”.

B2: STAT3 decoy (hSIE) (dsDNA)
DNA 1: CATTTCCCGTAAATC
DNA 2: GATTTACGGGAAATG
With B2, the binding result with STAT3 [1] is listed as “binds”.

B3: DN4 (structured_DNA)
DNA: CATTTCCCGTAAATCGAAAGATTTACGGGAAATG
modifications: PS x3 at 5' end of one strand and 3' end of the other (Table 2: 5' and 3' ends of both strands)
Take B3: the Kd in series [2] was found to be 182 nM.

B4: parent STAT3 decoy (PTO) (dsDNA)
DNA 1: CATTTCCCGTAAATC
DNA 2: GATTTACGGGAAATG
modifications: PS first three and last three bases of both strands
With B4, in series [3], the Kd was found to be 122 nM.

B5: longer 31-mer hSIE duplex (dsDNA)
DNA 1: AGCTTGTCGACATTTCCCGTAAATCGTCGAG
DNA 2: CTCGACGATTTACGGGAAATGTCGACAAGCT
Take B5: in the series with STAT3 [4], the binding result is “binds”.
